Laboratory results from patent US20030211587A1 (University of Texas, published 2003).

Biological target: the molecule itself
Experiment: native gel electrophoresis of purified His-tagged keptin (self-association)
Procedure: Analysis of His-tagged keptin recombinant protein. Crude proteins were extracted from E. Coli transformed with a bacterial expression vector encoding a secreted form of keptin tagged with 10× histidine residues at its N-terminus. The extracts were affinity purified with nickel resins and subjected to SDS-PAGE analysis under denatured conditions. […] The purified protein was also analyzed for its biochemical properties by native gel electrophoresis. Both keptin dimers and monomers were detected in the native gel. Leptin (MW: 14 kDa) was used as a reference for a monomer protein with similar molecular weight to His-Keptin (11.4 kDa).

B1: His-tagged keptin recombinant protein (human mature keptin with N-terminal 10x histidine, from pET-hKeptin in E. coli) (other, UniProt P60985 23-99, looked up)
chain: ATLGGPEEESTIENYASRPEAFNTPFLNIDKLRSAFKADEFLNWHALFESIKRKLPFLNWDAFPKLKGLRSATPDAQ
notes: mature; also called His-keptin; His-Keptin; not shown: N-terminal 10x histidine tag encoded by vector pET-16b
**Q.** Does B1 bind?
**A.** Result: binds
